Patent US20250019412A1 (ALPINE IMMUNE SCIENCES, published 2025)
Read-outs that look alike come from different tables or passages of the source.

T1: recombinant human APRIL (human, UniProt O75888 105-250, limits assumed)
T1 sequence (looked up): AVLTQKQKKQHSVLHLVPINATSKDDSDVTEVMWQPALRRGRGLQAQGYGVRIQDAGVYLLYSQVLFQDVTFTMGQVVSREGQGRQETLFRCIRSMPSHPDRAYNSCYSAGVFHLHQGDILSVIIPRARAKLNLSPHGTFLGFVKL

T2: recombinant mouse APRIL (mouse, UniProt Q9D777 96-241, limits assumed)
T2 sequence (looked up): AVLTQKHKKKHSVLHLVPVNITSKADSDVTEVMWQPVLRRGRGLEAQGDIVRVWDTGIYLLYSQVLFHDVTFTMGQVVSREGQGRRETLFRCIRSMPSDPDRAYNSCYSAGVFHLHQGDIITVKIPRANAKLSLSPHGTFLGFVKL


Experiments:
Assay in all cases: cell-based or functional assay
recombinant human APRIL [1] = biological target: T1, recombinant human APRIL
recombinant human BAFF [2] = biological target: T3, recombinant human BAFF (human, UniProt Q9Y275 134-285)
recombinant human APRIL [3] = biological target: T1, recombinant human APRIL; remark: listed apart in the source
recombinant human BAFF [4] = biological target: T3, recombinant human BAFF; remark: listed apart in the source
recombinant human APRIL [5] = biological target: T1, recombinant human APRIL; remark: listed apart in the source
recombinant human BAFF [6] = biological target: T3, recombinant human BAFF; remark: listed apart in the source
recombinant human BAFF [7] = biological target: T3, recombinant human BAFF; remark: listed apart in the source
recombinant human APRIL [8] = biological target: T1, recombinant human APRIL; remark: listed apart in the source
recombinant human BAFF [9] = biological target: T3, recombinant human BAFF; remark: listed apart in the source
recombinant mouse APRIL = biological target: T2, recombinant mouse APRIL
recombinant mouse BAFF = recombinant mouse BAFF (mouse, UniProt Q9WU72 127-309)
recombinant human APRIL [10] = biological target: T1, recombinant human APRIL; remark: listed apart in the source

recombinant mouse BAFF, sequence (Q9WU72 127-309 limits assumed): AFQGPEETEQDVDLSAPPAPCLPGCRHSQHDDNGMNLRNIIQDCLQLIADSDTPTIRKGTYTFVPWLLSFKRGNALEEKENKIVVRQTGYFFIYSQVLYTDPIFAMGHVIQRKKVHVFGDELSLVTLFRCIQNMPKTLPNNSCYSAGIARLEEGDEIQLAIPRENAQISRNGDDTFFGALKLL

| Binder | APRIL IC50 (pM) (recombinant human APRIL [1]) | APRIL IC50 (ΔWT) (recombinant human APRIL [1]) | BAFF IC50 (pM) (recombinant human BAFF [2]) | BAFF IC50 (ΔWT) (recombinant human BAFF [2]) | IC50 (nM) APRIL (recombinant human APRIL [3]) | IC50 APRIL (Δ TACI 30-110) (recombinant human APRIL [3]) | IC50 (nM) BAFF (recombinant human BAFF [4]) | IC50 BAFF (Δ TACI 30-110) (recombinant human BAFF [4]) | IC50 (read off the curve): blockade of human APRIL signalling via TACI (NF-κB luciferase reporter, Jurkat/NF-κB/TACI cells) (recombinant human APRIL [5]) | IC50 (read off the curve): blockade of human BAFF signalling via TACI (NF-κB luciferase reporter, Jurkat/NF-κB/TACI cells) (recombinant human BAFF [6]) | IC50 (read off the curve): blockade of human BAFF signalling via TACI (NF-κB luciferase reporter, Jurkat/NF-κB/TACI cells) (recombinant human BAFF [7]) | IC50 (nM) APRIL (recombinant human APRIL [8]) | IC50 APRIL (Δ TACI 30-110-Fc) (recombinant human APRIL [8]) | IC50 (nM) BAFF (recombinant human BAFF [9]) | IC50 BAFF (Δ TACI 30-110-Fc) (recombinant human BAFF [9]) | IC50 (read off the curve): blockade of mouse APRIL signalling via TACI (NF-κB luciferase reporter, Jurkat/NF-κB/TACI cells) (recombinant mouse APRIL) | IC50 (read off the curve): blockade of mouse BAFF signalling via TACI (NF-κB luciferase reporter, Jurkat/NF-κB/TACI cells) (recombinant mouse BAFF) | IC50 (read off the curve): blockade of human APRIL signalling via TACI (NF-κB luciferase reporter, Jurkat/NF-κB/TACI cells) (recombinant human APRIL [10]) |
| --- | --- | --- | --- | --- | --- | --- | --- | --- | --- | --- | --- | --- | --- | --- | --- | --- | --- | --- |
| TACI 13-118, with K77E/F78Y/Y102D, Fc fusion (Fc fusion) SRVDQEERFPQGLWTGVAMRSCPEEQYWDPLLGTCMSCKTICNHQSQRTCAAFCRSLSCRKEQGEYYDHLLRDCISCASICGQHPKQCADFCENKLRSPVNLPPELEPKSSDKTHTCPPCPAPEAEGAPSVFLFPPKPKDTLMISRTPEVTCVVVDVSHEDPEVKFNWYVDGVEVHNAKTKPREEQYNSTYRVVSVLTVLHQDWLNGKEYKCKVSNKALPAPIEKTISKAKGQPREPQVYTLPPSRDELTKNQVSLTCLVKGFYPSDIAVEWESNGQPENNYKTTPPVLDSDGSFFLYSKLTVDKSRWQQGNVFSCSVMHEALHNHYTQKSLSLSPG | 13200 pM | 1.07 fold of WT TACI (68-110)-Fc | 1990 pM | 1.07 fold of WT TACI (68-110)-Fc | 848 nM | 0.2 fold of TACI 30-110 | 2050 nM | 0.46 fold of TACI 30-110 | – | – | – | – | – | – | – | – | – | – |
| 26 TACI CRD2-Fc (Fc fusion) SLSCRKEQGEYYDHLLRDCISCASICGQHPKQCADFCENKLRSGSGGGGSEPKSSDKTHTCPPCPAPEAEGAPSVFLFPPKPKDTLMISRTPEVTCVVVDVSHEDPEVKFNWYVDGVEVHNAKTKPREEQYNSTYRVVSVLTVLHQDWLNGKEYKCKVSNKALPAPIEKTISKAKGQPREPQVYTLPPSRDELTKNQVSLTCLVKGFYPSDIAVEWESNGQPENNYKTTPPVLDSDGSFFLYSKLTVDKSRWQQGNVFSCSVMHEALHNHYTQKSLSLSPG | 9210 pM | 0.75 fold of WT TACI (68-110)-Fc | 1550 pM | 0.84 fold of WT TACI (68-110)-Fc | 214 nM | 0.05 fold of TACI 30-110 | 1270 nM | 0.28 fold of TACI 30-110 | ~0.6 nM | ~2 nM | ~0.6 nM | 179 nM | 0.05 fold of TACI 30-110-Fc | 1220 nM | 0.21 fold of TACI 30-110-Fc | – | – | – |
| 13 TACI CRD2-Fc (Fc fusion) SLSCRKEQGKFYDHLLRDCISCASICGQHPKQCAYFCENKLRSGSGGGGSEPKSSDKTHTCPPCPAPEAEGAPSVFLFPPKPKDTLMISRTPEVTCVVVDVSHEDPEVKFNWYVDGVEVHNAKTKPREEQYNSTYRVVSVLTVLHQDWLNGKEYKCKVSNKALPAPIEKTISKAKGQPREPQVYTLPPSRDELTKNQVSLTCLVKGFYPSDIAVEWESNGQPENNYKTTPPVLDSDGSFFLYSKLTVDKSRWQQGNVFSCSVMHEALHNHYTQKSLSLSPG | 12300 pM | 1 fold of WT TACI (68-110)-Fc | 1850 pM | 1 fold of WT TACI (68-110)-Fc | – | – | – | – | – | ~3 nM | ~2 nM | 369 nM | 0.1 fold of TACI 30-110-Fc | 1330 nM | 0.23 fold of TACI 30-110-Fc | ~0.7 nM | ~5 nM | ~5 nM |
| 7 TACI CRD1/CRD2-Fc (Fc fusion) variant TACI domain - linker - Fc fusion chain: VAMRSCPEEQYWDPLLGTCMSCKTICNHQSQRTCAAFCRSLSCRKEQGKFYDHLLRDCISCASICGQHPKQCDYFCENKLRSGSGGGGSEPKSSDKTHTCPPCPAPEAEGAPSVFLFPPKPKDTLMISRTPEVTCVVVDVSHEDPEVKFNWYVDGVEVHNAKTKPREEQYNSTYRVVSVLTVLHQDWLNGKEYKCKVSNKALPAPIEKTISKAKGQPREPQVYTLPPSRDELTKNQVSLTCLVKGFYPSDIAVEWESNGQPENNYKTTPPVLDSDGSFFLYSKLTVDKSRWQQGNVFSCSVMHEALHNHYTQKSLSLSPG | – | – | – | – | – | – | – | – | – | – | ~2 nM | – | – | – | – | – | – | ~3 nM |
